# In PMC9508834, “Mechanism of protein-primed template-independent DNA synthesis by Abi polymerases” (Nucleic Acids Research, 2022):
# Numbering of substitutions follows the chain as printed. Names and notes keep the numbering of the source. Values joined by “and” are separate entries in the source; they are usually repeats but may differ in a detail not shown here. Identical values can stand only once.
# B1: Lactococcus lactis AbiK, wild type (Ll-AbiK–DNA adduct) (enzyme)
# chain: MKKEFTELYDFIFDPIFLVRYGYYDRSIKNKKMNTAKVELDNEYGKSDSFYFKVFNMESFADYLRSHDLKTHFNGKKPLSTDPVYFNIPKNIEARRQYKMPNLYSYMALNYYICDNKKEFIEVFIDNKFSTSKFFNQLNFDYPKTQEITQTLLYGGIKKLHLDLSNFYHTLYTHSIPWMIDGKSASKQNRKKGFSNTLDTLITACQYDETHGIPTGNLLSRIITELYMCHFDKQMEYKKFVYSRYVDDFIFPFTFENEKQEFLNEFNLICRENNLIINDNKTKVDNFPFVDKSSKSDIFSFFENITSTNSNDKWIKEISNFIDYCVNEEHLGNKGAIKCIFPVITNTLKQKKVDTKNIDNIFSKRNMVTNFNVFEKILDLSLKDSRLTNKFLTFFENINEFGFSSLSASNIVKKYFSNNSKGLKEKIDHYRKNNFNQELYQILLYMVVFEIDDLLNQEELLNLIDLNIDDYSLILGTILYLKNSSYKLEKLLKKIDQLFINTHANYDVKTSRMAEKLWLFRYFFYFLNCKNIFSQKEINSYCQSQNYNSGQNGYQTELNWNYIKGQGKDLRANNFFNELIVKEVWLISCGENEDFKYLN
# modifications: DNA (9–17 nt by mass spectrometry) covalently attached by its 5′ end to the hydroxyl group of Tyr44
# notes: AbiK of Lactococcus lactis, encoded on plasmid pSRQ800; synthetic gene; theoretical MW of the monomer 71.5 kDa; it says that the whole length of the polypeptide chain is visible in the model except residues 189–190; The short DNA was synthesised in the bacterial cell and co-purified; source: E. coli BL21 Star (DE3), purified (HisTrap, SUMO protease, HisTrap flow-through, Superdex 200); not shown: …
# B2: Ll-AbiK Y44F (enzyme, Lactococcus lactis)
# chain: B1 chain with Y44F
# notes: AbiK of Lactococcus lactis with the protein-priming tyrosine 44 replaced by phenylalanine; Unable to carry out protein-primed DNA synthesis, so it carries no DNA; Purification of the variants is described only in general terms with the wild type; also called Y44F variant; source: E. coli BL21 Star (DE3), purified; not shown: His6-SUMO, N-terminal, cleaved
# Key:
# [1] = molecular target: Abi-P2 of E. coli prophage EC30 (residues 1–541) (E. coli prophage EC30 (Enterobacteria phage P2-EC30)); assay: crystal structure; Abi-P2 (1–541) 6 mg/ml, sitting drop at 18°C and 4°C; space group P2(1); 3.1 Å
# [2] = molecular target: Abi-P2 of E. coli prophage EC30 (residues 1–541) (E. coli prophage EC30 (Enterobacteria phage P2-EC30)); assay: cryo-EM structure; Abi-P2 1 mg/ml in 20 mM Tris pH 7.0, 500 mM NaCl, 1 mM DTT; tilted dataset, C3 symmetry, 3.9 Å low-quality reconstruction, not deposited
# [3] = molecular target: Abi-P2 of E. coli prophage EC30 (residues 1–541) (E. coli prophage EC30 (Enterobacteria phage P2-EC30)); assay: SEC-MALS; Superdex 200 Increase 10/300 GL, 100 μl samples, 25 mM Tris pH 7.0, 400 mM NaCl, 2% glycerol, 1 mM DTT
# [4] = molecular target: the molecule itself; assay: cryo-EM structure; Ll-AbiK 1.0 mg/ml on Quantifoil R1.2/1.3 grid, single-particle reconstruction with D3 symmetry, 2.3 Å
# [5] = molecular target: the molecule itself; assay: cryo-EM structure; Ll-AbiK Y44F 1.74 mg/ml on C-flat-2/1 grid, 2D classification; only hexamer classes used for the reconstruction (D3 symmetry, 2.7 Å)
molecule,measurement,setting,value
Abi-P2 of E. coli prophage EC30 (residues 1–541) (enzyme),stoichiometry N,[1],3
same,stoichiometry N,[2],3
same,stoichiometry N,[3],3
B1,stoichiometry N,[4],6
B2,stoichiometry N,[5],3 and 6
